Measured values: the supplement of paper PMC7877785
± gives the uncertainty stated by the source.

Assay: self-splicing fitness, log relative to wild type (ln ratio); higher = more splicing; Tetrahymena group I intron in knt gene, E. coli kanamycin selection, DiMSum; sequences stand for … in CUCUCU…GGAGGGAAAAGUUAUCAGGCAUGCACCUGGUAGCUAGUCUUUAAACCAAUAGAUUGCAUCGGUUUAAAAGGCAAGACCGUCAAAUUGCGGGAAAGGGGUCAACAGCCGUUCAGUACCAAGUCUCAGGGGAAACUUUGAGAUGGCCUUGCAAAGGGUAUGGUAAUAAGCUGACGGACAUGGUCCUAACCACGCAGCCAAGUCCUAAGUCAACAGAUCUUCUGUUGAUAUGGAUGCAGUUCACAGACUAAAUGUCGGUCGGGGAAGAUGUAUUCUUCUCAUAAGAUAUAGUCGGACCUCUCCUUAAUGGGAGCUAGCGGAUGAAGUGAUGCAACACUGGAGCCGCUGGGAACUAAUUUGUAUGCGAAAGUAUAUUGAUUAGUUUUGGAGUACUCGUGGUCG
Method in brief: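 A randomised library covering all eight P1ex-region intron nucleotides was built with the intron in the knt kanamycin-resistance gene on pET-22b(+) and held in E. coli BL21(DE3). Cells were grown overnight at 37°C or 30°C on LB agar, with or without 25 μg/mL kanamycin, plus 100 μg/mL carbenicillin, 50 μM IPTG and 0.2% rhamnose, and pooled colonies were amplicon-sequenced on an Illumina HiSeq 2500. DiMSum fitness is the error-weighted combination of wild-type-normalised replicate fold changes, kanamycin versus none.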

| Sequence | self-splicing fitness (ln) (30 °C) | self-splicing fitness (ln) (37 °C) |
| --- | --- | --- |
| CAGUAGCAAUAUUACGGUGA | -4.04 ± 0.31 | -2.58 ± 0.24 |
| AUCAAGCAAUAUUACGUCUA | -0.821 ± 0.073 | -0.438 ± 0.076 |
| GCAUAGCAAUAUUACGGUAC | -2.07 ± 0.097 | -1.47 ± 0.091 |
| GAAUAGCAAUAUUACGAUCU | 0.384 ± 0.078 | -0.286 ± 0.079 |
| UUCUAGCAAUAUUACGGUAU | – | -0.561 ± 0.24 |
| UAUAAGCAAUAUUACGUUGC | -3.02 ± 0.3 | – |
| AGCCAGCAAUAUUACGUGCG | -0.906 ± 0.077 | -0.256 ± 0.087 |
| CCAGAGCAAUAUUACGGAUG | -2.56 ± 0.15 | -1.3 ± 0.18 |
| CCAUAGCAAUAUUACGGGGU | -3.73 ± 0.18 | -2.46 ± 0.17 |
| CCCCAGCAAUAUUACGUAAA | -3.91 ± 0.17 | -2.89 ± 0.26 |
| CUAGAGCAAUAUUACGCAUC | -3.92 ± 0.29 | -2.65 ± 0.45 |
| CGGUAGCAAUAUUACGCUCU | -2.71 ± 0.24 | -2.43 ± 0.33 |
| ACCUAGCAAUAUUACGCCAA | -3.4 ± 0.27 | -2.09 ± 0.23 |
| CUCUAGCAAUAUUACGAGUC | – | -2.8 ± 0.3 |
| AUUCAGCAAUAUUACGGCAU | -0.321 ± 0.065 | 1.01 ± 0.1 |
| GCCCAGCAAUAUUACGGUUC | -0.85 ± 0.043 | -0.0899 ± 0.059 |
| GGCCAGCAAUAUUACGCCAG | -3.88 ± 0.37 | -1.59 ± 0.35 |
| UUUUAGCAAUAUUACGAUAC | -3.18 ± 0.45 | – |
| UAUUAGCAAUAUUACGACGA | -0.31 ± 0.18 | -0.557 ± 0.23 |
| GCUUAGCAAUAUUACGUCGC | -1.72 ± 0.19 | -0.764 ± 0.28 |
| CUCCAGCAAUAUUACGUUCU | -2.89 ± 0.15 | -3.65 ± 0.46 |
| UGUGAGCAAUAUUACGCGCA | -1.34 ± 0.44 | -0.203 ± 0.48 |
| UUACAGCAAUAUUACGUUCG | -0.549 ± 0.061 | -0.234 ± 0.091 |

| Sequence | self-splicing fitness (ln) (30 °C) | self-splicing fitness (ln) (37 °C) |
| --- | --- | --- |
| AACCAGCAAUAUUACGGGUU | -2.89 ± 0.078 | -3.19 ± 0.13 |
| GAUGAGCAAUAUUACGUUAU | -3.98 ± 0.23 | -1.77 ± 0.16 |
| CGCUAGCAAUAUUACGUGCG | -3.74 ± 0.26 | -2.4 ± 0.22 |
| UAAAAGCAAUAUUACGUUUU | -3.26 ± 0.13 | -2.82 ± 0.16 |
| AAGAAGCAAUAUUACGUCCA | -0.641 ± 0.13 | 0.0432 ± 0.14 |
| UAUAAGCAAUAUUACGAUCC | – | -2.05 ± 0.37 |
| GGAUAGCAAUAUUACGAAAU | -1.09 ± 0.12 | -0.476 ± 0.12 |
| AGCCAGCAAUAUUACGUCGU | -1.75 ± 0.072 | -1.58 ± 0.086 |
| AUCAAGCAAUAUUACGGACC | -1.47 ± 0.12 | -1.22 ± 0.086 |
| AAAGAGCAAUAUUACGGAAC | – | -2.8 ± 0.44 |
| GUCGAGCAAUAUUACGCGUU | -1.64 ± 0.11 | -0.556 ± 0.14 |
| AGUAAGCAAUAUUACGUACC | -0.632 ± 0.16 | 0.366 ± 0.21 |
| CUGCAGCAAUAUUACGGGAC | -2.53 ± 0.22 | -0.85 ± 0.17 |
| ACGCAGCAAUAUUACGUGGC | -2.88 ± 0.14 | -2.26 ± 0.17 |
| GCGCAGCAAUAUUACGACAG | -3.49 ± 0.17 | -3.05 ± 0.18 |
| CAGCAGCAAUAUUACGUGGC | -3.81 ± 0.25 | -1.67 ± 0.23 |
| GCUUAGCAAUAUUACGCUUG | -2.53 ± 0.27 | -1.74 ± 0.36 |
| AACUAGCAAUAUUACGAGUU | -3.44 ± 0.24 | -1.89 ± 0.22 |
| CAGCAGCAAUAUUACGAAGC | -4.28 ± 0.31 | – |
| AAUCAGCAAUAUUACGGGGA | -1.82 ± 0.1 | -0.723 ± 0.1 |
| AUGGAGCAAUAUUACGGUGA | -2.9 ± 0.44 | – |
| GAACAGCAAUAUUACGUCGG | -2.64 ± 0.16 | -1.85 ± 0.28 |
